The target of one test is 14-3-3 ε (UniProt P62258). Description: GFP-Trap co-IP, Myc immunoblot. The conditions noted are these: reference: wild type.
For another test, the target named is 14-3-3 ζ (UniProt P63104). Briefly: GFP-Trap co-IP, Myc immunoblot. The conditions noted are these: reference: wild type. On the technique in general: In western blotting, separated proteins are transferred to a membrane and probed.

These results are taken from article PMC5830916.

Take E2F7 (from UniProt Q6S7F2) S411A: the “binding against the reference” value in the test with 14-3-3 ε (sites S411) and with 14-3-3 ζ (sites S411) was “lost” throughout.

Take E2F8 (from UniProt Q58FA4) S395A: the “binding against the reference” value in the test with 14-3-3 ε (sites S395) and with 14-3-3 ζ (sites S395) was “lost” each time.
